Test results as given in patent US20120231006A1 (Amgen, published 2012).

Key:
rat Orai1 = target: T1, rat Orai1 (rat, UniProt Q5M848 1-304); experiment: FACS, 293EBNA transfectants with STIM1, thapsigargin
T1 construct: co-expressed with rat STIM1; also called rOrai1
Protocol: (§1) FIG. 13A-B illustrates the results of FACS analysis showing binding to human Orai1 expressed on the surface of HEK-293-EBNA cells that were treated with 2 μM Thapsigargin. HEK-293-EBNA cells were transiently transfected with human Orai1 and human STIM1, mouse Orai1 and mouse STIM1, rat Orai1 and rat STIM1 and control empty vector. Transfected cells were stained first with recombinant monoclonal antibodies then counter-stained with a secondary phycoerythrin-labeled Gt anti-Hu IgG F(ab′)₂ or Gt anti-Mu IgG F(ab′)₂ antibody fragment, as appropriate, and visualized using FACS.
(§2) FACS binding analysis. Transfected 293EBNA cells transiently expressed hOrai1, human Orai2, or human Orai3 (results of binding comparison in FIG. 11A-B), or hOrai1(S218G) (results of binding comparison in FIG. 12A-B); or hOrai1 and hSTIM1; mOrai1 and mouse STIM1; or rat Orai1 and rat STIM1 (results of binding comparison in FIG. 13). The transfected cells were harvested at 48 hours post-transfection. Cells transfected with pcDNA3.1 were used as negative controls. Cells were washed once with ice-cold 1×PBS, resuspended in ice-cold FACS buffer (1×D-PBS+2% goat serum), and 2×10⁵ cells in […] were stained per antibody combination. All antibody incubation steps were performed on ice for 1 hour. […] Next, the unlabelled antibody was detected using goat F(ab′)₂ anti-mouse or anti-human IgG-phycoerythrin (IgG-PE), followed by a wash with 200 μL of ice-cold FACS buffer before flow cytometry analysis. Unstained cells and cells stained with detecting antibodies were used as negative controls. The values of relative level of fluorescence were calculated using FCS Express (De Novo Software) and mean values were calculated using log-transformed data (geometric mean). Purified mAbs were assessed by FACS assay for their ability to specifically bind human Orai1, Orai2 and Orai3 proteins expressed on HEK-293 cells.

mouse Orai1 = target: T2, mouse Orai1 (mouse, UniProt Q8BWG9 1-304); experiment: as above
T2 construct: co-expressed with mouse STIM1; also called mOrai1
Protocol: as §1, §2

human Orai1 = target: T3, human Orai1 (human, UniProt Q96D31 1-301); experiment: FACS Kd, AM1-CHO/hOrai1/hSTIM1-YFP cells
T3 construct: on AM1-CHO/hOrai1/hSTIM1-YFP, AM1/hOrai1, HEK-293 transfectants, endogenous on Jurkat and blood cells; in Westerns from cell lysates; also called hOrai1; CRACM1
Protocol: The equilibrium plates were centrifuged at 500 g for 3 minutes and cell pellets were washed twice with 200 μL of ice cold FACS buffer (1×D-PBS+2% FBS). The cells were then incubated with a secondary antibody, goat anti-human Fc Cy5 at 5 μg/mL and 100 μL per well for 1 h on ice in the dark. Following the incubation, the cells were washed twice with 200 μL of ice-cold FACS buffer before flow cytometry analysis. The GeoMean values gated on live cell population measure the bound [Ab]. The inverse of the GeoMean values that reflects theoretical free [Ag] in the equilibrium solution was then calculated. The inverse values of the GeoMean read were used in KinExA® Pro software for analysis and Kd calculation for each antibody. The free [Ag] measure was plotted against the starting concentration of titrating component and from these plots at two different cell concentrations the Kd was obtained from curve fitting using n-curve analysis in KinExA Pro software. […] Shown in Table 14 (below) are the equilibrium dissociation constant (Kd) values of invented mAbs determined by FACS Kd measurement.

[1] = target: T4, hOrai1-mOrai1 ECL2 chimeric protein (human/mouse chimera, UniProt Q96D31 1-301); experiment: FACS, 293EBNA transfectants
T4 construct: human Orai1 with mouse ECL2; also called Ch
Excerpt: FIG. 15A-B illustrates the results of FACS analysis showing binding to human Orai1 extracellular loop 2-mouse Orai1 mutant expressed on the surface of HEK-293-EBNA cells. HEK-293-EBNA cells were transiently transfected with mouse Orai1 mutant where human Orai1 extracellular loop 2 replaced the mouse Orai1 extracellular loop 2 and human Orai1 mutant where mouse Orai1 extracellular loop 2 replaced human extracellular loop 2. Transfected cells were stained first with recombinant monoclonal antibodies then counter-stained with a secondary phycoerythrin-labeled goat (“Gt”) anti-human (“Hu”) IgG F(ab′)₂ antibody fragment and visualized using FACS.
FACS binding analysis. Transfected 293EBNA cells transiently expressed hOrai1-mOrai1 ECL2 or mOrai1-hOrai1 ECL2 chimera. The transfected cells were harvested at 48 hours post-transfection. Cells transfected with pcDNA3.1 were used as negative controls. Cells were washed once with ice-cold 1×PBS, resuspended in ice-cold FACS buffer (1×D-PBS+2% goat serum), and 2×10⁵ cells in 100 μL were stained per antibody combination. All antibody incubation steps were performed on ice for 1 hour. […] Next, the unlabelled antibody was detected using goat F(ab′)₂ anti-mouse or anti-human IgG-phycoerythrin (IgG-PE), followed by a wash with 200 μL of ice-cold FACS buffer before flow cytometry analysis. Unstained cells and cells stained with detecting antibodies were used as negative controls. The values of relative level of fluorescence were calculated using FCS Express (De Novo Software) and mean values were calculated using log-transformed data (geometric mean). The results of the FACS analysis are shown in FIG. 15A-B, which supports the conclusion that the hOrai1 ECL2 domain is the region of hOrai1 where antibodies of the present invention bind.

human Orai2 = target: T5, human Orai2 (human, UniProt Q96SN7 1-254); experiment: FACS, 293EBNA transfectants
T5 construct: also called hOrai2
Protocol: (§3) Purified monoclonal antibodies from hybridoma supernantants of the subclones derived from initial hits were assessed for binding to human Orai1, Orai2 and Orai3 expressed on HEK-293-EBNA cells along with vector transfected control parental cells. Cells stained with or without primary mAbs were counter-stained with a secondary phycoerythrin-labeled goat (“Gt”) anti-human (“Hu”) IgG F(ab′)₂ antibody fragment and visualized using FACS.
as §2

human Orai3 = human Orai3 (human, UniProt Q9BRQ5 1-295); experiment: FACS, 293EBNA transfectants
Protocol: as §3, §2

T4 sequence (Q96D31 other isoform, or with tags, fused parts or gaps mutant): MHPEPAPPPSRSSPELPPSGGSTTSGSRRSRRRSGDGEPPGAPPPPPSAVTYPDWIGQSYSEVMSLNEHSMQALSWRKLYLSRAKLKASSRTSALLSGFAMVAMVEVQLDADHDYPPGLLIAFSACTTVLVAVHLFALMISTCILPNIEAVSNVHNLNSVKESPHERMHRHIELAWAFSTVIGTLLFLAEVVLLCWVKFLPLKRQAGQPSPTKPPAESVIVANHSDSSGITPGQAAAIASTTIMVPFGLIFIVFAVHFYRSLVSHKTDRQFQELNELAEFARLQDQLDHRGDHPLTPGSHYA
T1 sequence (Q5M848 whole entry): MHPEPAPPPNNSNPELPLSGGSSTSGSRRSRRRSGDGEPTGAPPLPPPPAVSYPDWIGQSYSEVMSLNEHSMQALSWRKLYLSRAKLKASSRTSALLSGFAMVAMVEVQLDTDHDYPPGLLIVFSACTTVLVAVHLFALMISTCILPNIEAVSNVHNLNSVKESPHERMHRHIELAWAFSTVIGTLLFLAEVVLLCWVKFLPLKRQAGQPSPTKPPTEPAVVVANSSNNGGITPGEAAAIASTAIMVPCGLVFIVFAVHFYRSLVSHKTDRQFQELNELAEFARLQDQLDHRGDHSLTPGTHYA
T3 sequence (Q96D31 whole entry): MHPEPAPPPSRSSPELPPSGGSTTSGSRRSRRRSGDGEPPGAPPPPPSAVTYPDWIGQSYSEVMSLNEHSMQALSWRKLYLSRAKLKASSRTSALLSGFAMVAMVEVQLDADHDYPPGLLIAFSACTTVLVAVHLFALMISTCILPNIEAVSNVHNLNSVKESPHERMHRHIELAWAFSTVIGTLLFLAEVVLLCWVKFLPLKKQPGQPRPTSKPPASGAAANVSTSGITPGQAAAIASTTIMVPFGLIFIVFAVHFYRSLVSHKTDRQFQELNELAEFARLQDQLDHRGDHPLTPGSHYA
T5 sequence (Q96SN7 whole entry): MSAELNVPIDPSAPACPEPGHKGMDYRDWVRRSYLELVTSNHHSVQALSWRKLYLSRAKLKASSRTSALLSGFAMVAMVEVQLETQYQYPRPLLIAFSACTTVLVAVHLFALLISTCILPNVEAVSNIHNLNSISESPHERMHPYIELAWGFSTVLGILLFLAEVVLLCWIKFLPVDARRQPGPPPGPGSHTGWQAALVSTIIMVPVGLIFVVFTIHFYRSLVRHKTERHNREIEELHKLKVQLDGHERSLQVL
T2 sequence (Q8BWG9 whole entry): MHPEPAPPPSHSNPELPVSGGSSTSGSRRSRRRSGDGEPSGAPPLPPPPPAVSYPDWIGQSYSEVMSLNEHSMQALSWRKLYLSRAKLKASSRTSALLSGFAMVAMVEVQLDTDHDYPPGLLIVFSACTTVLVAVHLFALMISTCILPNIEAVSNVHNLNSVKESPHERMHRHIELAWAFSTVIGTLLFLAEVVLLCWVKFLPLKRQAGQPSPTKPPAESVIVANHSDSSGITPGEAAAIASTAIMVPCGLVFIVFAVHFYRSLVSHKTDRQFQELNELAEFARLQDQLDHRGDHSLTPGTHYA

Binder | binding result (rat Orai1) | binding result (mouse Orai1) | Kd (human Orai1) | binding result [1] | binding result (human Orai2) | binding result (human Orai3)
mAb 5F7.1 (antibody, human IgG2, lambda, fully human IgG2 lambda, Campaign 2) heavy: QVQLVQSGAEVKKPGASVKVPCKASGYTFTDYYINWVRQAPGQGLEWMGWINPNNGGTNYAQKFQGRVTMTRDTSISTAYMELRRLRSDDTAVYYCARERGGYEDWFDPWGQGTLVTVSSASTKGPSVFPLAPCSRSTSESTAALGCLVKDYFPEPVTVSWNSGALTSGVHTFPAVLQSSGLYSLSSVVTVPSSNFGTQTYTCNVDHKPSNTKVDKTVERKCCVECPPCPAPPVAGPSVFLFPPKPKDTLMISRTPEVTCVVVDVSHEDPEVQFNWYVDGVEVHNAKTKPREEQFNSTFRVVSVLTVVHQDWLNGKEYKCKVSNKGLPAPIEKTISKTKGQPREPQVYTLPPSREEMTKNQVSLTCLVKGFYPSDIAVEWESNGQPENNYKTTPPMLDSDGSFFLYSKLTVDKSRWQQGNVFSCSVMHEALHNHYTQKSLSLSPGK light: QSVLTQPPSVSGAPGQRVTISCTGSSSNIGAGFDVHWYQQLPVTAPKLLIYGNRNRPSGVPARFSGSKSGTSASLAITGLQAEDEAVYYCQSYDSSLTVFGGGTKLTVLGQPKANPTVTLFPPSSEELQANKATLVCLISDFYPGAVTVAWKADGSPVKAGVETTKPSKQSNNKYAASSYLSLTPEQWKSHRSYSCQVTHEGSTVEKTVAPTECS | no binding (tested: 1 µg) | no binding (tested: 1 µg) | 0.185 nM | no binding (tested: 1 µg) | no binding (tested: 1 µg) | no binding (tested: 1 µg)
mAb 5A1.1 (antibody, human IgG2, fully human, Campaign 2; lambda CL-1) heavy: QVQLVQSGAEVKKPGASVKVPCKASGYTFTDYYINWVRQAPGQGLEWMGWINPNNGGTNYAQKFQGRVTMTRDTSISTAYMELRRLRSDDTAVYYCARERGGYEDWFDPWGQGTLVTVSSASTKGPSVFPLAPCSRSTSESTAALGCLVKDYFPEPVTVSWNSGALTSGVHTFPAVLQSSGLYSLSSVVTVPSSNFGTQTYTCNVDHKPSNTKVDKTVERKCCVECPPCPAPPVAGPSVFLFPPKPKDTLMISRTPEVTCVVVDVSHEDPEVQFNWYVDGVEVHNAKTKPREEQFNSTFRVVSVLTVVHQDWLNGKEYKCKVSNKGLPAPIEKTISKTKGQPREPQVYTLPPSREEMTKNQVSLTCLVKGFYPSDIAVEWESNGQPENNYKTTPPMLDSDGSFFLYSKLTVDKSRWQQGNVFSCSVMHEALHNHYTQKSLSLSPGK VL: QSVLTQPPSVSGAPGQRVTISCTGSSSNIGAGFDVHWYQQLPVTAPKLLIYGNRNRPSGVPARFSGSKSGTSASLAITGLQAEDEAVYYCQSYDSSLTVFGGGTKLTVL | no binding (tested: 1 µg) | no binding (tested: 1 µg) | – | no binding (tested: 1 µg) | no binding (tested: 1 µg) | no binding (tested: 1 µg)
mAb 2D2.1 (antibody, human IgG2, lambda, V domains shown, fully human IgG2 lambda, Campaign 1; also called mAb 2D.1) VH: QVQLQQWGAGLLKPSETLSLTCAVYGGSFSGYYWSWIRQPPGKGLEWIGEIDHSGRINYNPALKSRLTISVDTSKNQFSLKLSSVTAADTAVYYCARAGSGGYEDWFDPWGQGTLVTVSS VL: QSVLTQPPSVSGAPGQRVTISCTGSSSNIGAGYNVHWYQQFPRTDPKLLIYVYNIRPSGVPDRFSGSRSGTSASLAITGLQTEDEADYYCQSYDSSLSGVVFGGGTKLTVLG | no binding (tested: 1 µg) | no binding (tested: 1 µg) | 0.0098 nM | no binding (tested: 1 µg) | no binding (tested: 1 µg) | no binding (tested: 1 µg)
mAb 2B7.1 (antibody, human IgG2, V domains shown, fully human, Campaign 1) VH: QVQLQQWGAGLLKPSETLSLTCAVYGGSFSGYYWSWIRQPPGKGLEWIGEIDHSGSTNYNPALKSRLTISVDTSKNQFSLKLSSVTAADTAVYYCARAGSGGYEDWFDPWGQGTLVTVSS VL: QSVLTQPPSVSGAPGQRVTISCTGSSSNIGTGYNVHWYQQFPRTDPKLLIYVYNIRPSGVPDRFSGSRSGTSASLAITGLQTEDEADYYCQSYDSSLSGVVFGGGTKLTVLG | no binding (tested: 1 µg) | no binding (tested: 1 µg) | 0.133 nM | no binding (tested: 1 µg) | no binding (tested: 1 µg) | no binding (tested: 1 µg)

Further lines, results first:

binding result (rat Orai1) | binding result (mouse Orai1) | Kd (human Orai1) | binding result [1] | binding result (human Orai2) | binding result (human Orai3) | Binder
no binding (tested: 1 µg) | no binding (tested: 1 µg) | 0.52 nM | no binding (tested: 1 µg) | no binding (tested: 1 µg) | no binding (tested: 1 µg) | mAb 2C1.1 (antibody, human IgG2, lambda, V domains shown, fully human IgG2 lambda, Campaign 1; tested hybridoma-purified and recombinant; also called anti-hOrai1 mAb 2C1.1) VH: QVQLQQWGAGLLKPSETLSLTCAVYGGSFSGYYWSWIRQPPGKGLEWIGEIDHSGSTNYNPALKSRLTISVDTSKNQFSLKLSSVTAADTAVYYCARAGSGGYEDWFDPWGQGTLVTVSS VL: QSVLTQPPSVSGAPGQRVTISCTGSSSNIGAGYNVHWYQQFPRTDPKLLIYVYNIRPSGVPDRFSGSRSGTSASLAITGLQTEDEADYYCQSYDSSLSGVVFGGGTKLTVLG
no binding (tested: 1 µg) | no binding (tested: 1 µg) | – | no binding (tested: 1 µg) | no binding (tested: 1 µg) | no binding (tested: 1 µg) | mAb 5C1.1 (antibody, human IgG2, lambda, V domains shown, fully human IgG2 lambda, Campaign 2) VH: QVQLVQSGAEVKKPGASVKVSCKASGYTFTDYYMNWVRQAPGQGLEWMGWINPNSGGTKYAQKFQGRVTMTRDTSIRTAYMELSRLRSDDTAVYYCAREYGGNSDWFDPWGQGTLVTVSS VL: QSVLTQPPSVSGAPGQRVTISCTGSSSNIGAGYDVHWYQQLPGTAPKLLIYGNSNRPSGVPDRFSGSKSGTSASLAITGLQAEDEADYYCQSYDNRLSDSVVIGGGTKLAVQG
no binding (tested: 1 µg) | no binding (tested: 1 µg) | – | no binding (tested: 1 µg) | no binding (tested: 1 µg) | no binding (tested: 1 µg) | mAb 5B5.2 (antibody, human IgG2, lambda, V domains shown, fully human IgG2 lambda, Campaign 2; same chains as 5B5.1) VH: QVQLVQSGAEVKKPGASVKVSCKASGYTFTDYYINWVRQAPGQGLEWMGWINPNSGGTDYAQKFQGRVTMTRDTSIRTAYMELNRLTSDDTAVYYCAREYGGYEDWFDPWGQGTLVTVSS VL: QSVLTQPPSVSGAPGQRVTISCTGSNSNIGAGFDVHWYQQLPGTVPKLLIYGNNNRPSGVPDRFSGSKSGTSASLAITGLQAEDEADYYCQSYDSRLTVFGGGTKLTVLG
